Biological target: T1, MqsA (Escherichia coli (strain of the protein not stated)) (UniProt Q46864)
T1 sequence: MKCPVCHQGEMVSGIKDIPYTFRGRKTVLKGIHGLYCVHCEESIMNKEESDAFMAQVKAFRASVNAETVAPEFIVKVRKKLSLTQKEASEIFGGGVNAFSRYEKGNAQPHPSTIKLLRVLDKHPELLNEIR
Assay: EMSA
Settings: 10 mM Tris-HCl pH 7.5, 50 mM KCl, 1 mM DTT, 1 ug poly(dI.dC), 30-50 fmol labeled probe, ambient temperature, 1 h; 6% gel, 0.5x TBE

Sequence: CGTGTATGTGGTGTGCGTTTTTCCATAACCCCCGCCTCCCTGTTACTTTAGTTATAACCTAAAAGGTTAATTACAGCAATGAAAAAGCACCTAAAAGGTTAGTTAGATGTACGGAGATAGTGACCACACAAAACGTATTCTTTAAGGAAAGTGATTGACCATATAAGAAAGTGGCGCATTAGTAGCGCCAGTTTGAAGCAGGAATTTATAAGGGAAGCTGGAGTCAGGCATCAC (double strand) [p-mqsRA (234 bp)]
- binding: binds

Source: article PMC4894380
